Data from paper PMC4735555 (2016).

Target: 2N5.1 TCR
Test: SPR; Mamu-B*098 loaded with C14nef5

B1: β2m-linked Mamu-B*098 protein (single-chain, refolded without C14nef5, biotinylated) (other)
chain: IQRTPKIQVYSRHPPENGKPNFLNCYVSGFHPSDIEVDLLKNGEKMGKVEHSDLSFSKDWSFYLLYYTEFTPNEKDEYACRVNHVTLSGPRTVKWDRDMGGGGSGGSGSGGGSSGSHSMRYFSTTVSRPGRGEPRFIVVGYVDDTQFVRFDSDAASPKMEPRAPWMEQEGPEYWEEQTRRVKDAAQTFRVSLGNLRGYYNQSEAGSHTLQTMSGCDLGPDGRLLRGYYQQAYDGRDYIALNEDLRSWTAADEAAQNTQRKWEAAGVAEQWRAYLEGECLESLRRYLENGKETLQRAEPPKTHVTHHPVSDHEATLRCWALGFYPAEITLTWQRDGEDQTQDTELVETRPGGDGTFQKWGAVVVPSGEEQRYTCHVQHEGLPEPLTLRWEPLHHILDAQKMVWNHR
modifications: biotin (BirA) on the biotinylation sequence peptide
B1 showed a Kd of 2500 nM.
